Measured values: patent US20100272689A1, “Protease Having Algicidal Activity, Gene Encoding the Same and Algicidal Formulation Comprising the Same” (KOREA OCEAN RESEARCH & DEVELOPMENT INSTITUTE, priority 2007, published 2010)

B1: FJ: protein of Flavobacterium johnsoniae UW101 with homology to KAOT1—10476 (protein, listed as Flavobacterium johnsoniae)
chain: MKKIKSILILSFTALVLLSCNKEDETVSSGQESLKVTPEVLEKLKSLSLNTSDVQVIQNTSLEGAVEDAFLVEGDIIITQAQLNKMDLHGGITTEQYRTTNLVSAPRTIKVVGLSGTGTTALTTNMRNGLQAAINRYNNLGLSINFTLTFSSSTSGANIVVRRQTGSAGGVAGFPSGGNPYNSVTLYSGLDSYSTNVNAHVAAHEIGHCIGLRHTDWFSRQSCGQNSNEGTAGVGAILIPGTPSGYDATSYMRACFGSNETGAFNANDITALNYLY
modifications: Flavobacterium johnsoniae UW101 (ZP_01247095)
B2: KAOT1_10476: metallo protease of Kordia algicida OT1: signal peptide (1-27), processing peptide (28-98), mature region (99-278) (protein, listed as Kordia algicida)
chain: MKKIKNLTFALALGLGITMVSCSKDTAVVDEEQDTAIGIPQDVLQKAQSLHFNTFDMQEASFEKPNGKIEEGYMMEGDIFFTRDQLMNMELGGDITSKQYRTNNLVSPGVITIIGYTGNNSNGLTTKMQTGLRWAVDNYNALNLSISFQLTFGTDYQNKDMVVYQVQGGAGGSAGFPSGGNPYKWVKINSGMAPYSNNVHEHVIGHEIGHSIGFRHSDYFSRQSCGQNSNEGSAGVGAIHIPGTPTGWDPTSLMNACFSSSEDGEFNGNDITALNFLY
modifications: KAOT1_10476 of Kordia algicida OT-1
B3: CRO: protein of Croceibacter atlanticus HTCC2559 with homology to KAOT1—10476 (protein, listed as Croceibacter atlanticus)
chain: MVFVSCEKDNDTNNAEVADTNEVTTGSLETLGVNTDLTPTNLDQATLDLIASKHLSPIGAQEELRYLPDGTSEKAIRIEGDIVMTKAELEELEFNGYSNENAQYSTNALVSPQTITIIGYTGGSQALTSSEQTALQWAVANYNRLNLNINFSLTFGTNYQNKDMVVYNNTVNNPSGAGGSAGFPSGGNPHKFVQIYGLSNYNTNVIEHVITHEIGHSVGFRHTDYFSRQSCGQNTNEGTAGVGANHIPGTPTGYDSTSIMLACFSSGEDGEFNSNDITALNYLY
modifications: Croceibacter atlanticus HTCC2559 (ZP_00951344)
B4: KAOT1_11562: protein of Kordia algicida with high homology to KAOT1—10476 (protein, listed as Kordia algicida)
chain: MKRNFKIQMLYVLLTMLLLAGCQNDTEEELVEEATTAVERVDVKWLAPDDHPVVQLLYSRGYERGTIYETDEHFLAPPDLLYSKDINDYDLSDNGSNAEQAYNTGKLVSLNRMRINVFLDNSIGTDLQTQSVNAMNELNGINNCALFFVRVFNANQAQITIRSDFGAESNNVLGRAGFPSNGRPFDTVTLNVDRLDDFGADIRRNTIIHELGHCVGLRHTDWQANRERSAVNIPGTSANDTGSIMWHTINGGTPFTNGDLTAFRALFPRALRIDVVNEIDDYDYSGEIYVLDNVFVDVFTDGSYSTQTTLNRNVNVSYRINVQEYNHTSGTYYYSRNRTLTAGNNRYYIDDEEEECSPYQGETCTRQDLEIRLATSIL
modifications: Kordia algicida KAOT1_11562
B5: MED: protein of Leeuwenhoekiella blandensis MED217 with homology to KAOT1—10476 (protein, listed as Leeuwenhoekiella blandensis)
chain: MTSCSEDAEQTTLPEAQPTSNLEVSSEIIQQVEDLGMNANYVRWDDFYFPDGSSEPRLFLEEDVVVTPEQLSSMSANVEESKSGKGDSKQYRTSALVSQGRTISIIGYTGGSQALSQKERTALQWAVANYNRLSGVSISFNLTFGTDYQNKDMVVYNNTVNNPSGAGGSAGFPSNGLPYKFVQIYGLANYDTNVVEHVMTHEIGHSVGFRHTDWFSRQSCGQNVYEGGDANHVSGTPTGYDSTSIMLACFSANEDGEFNANDITALNNMY
modifications: Leeuwenhoekiella blandensis MED217 (ZP_01059780)

How the values were obtained:
Assay in all cases: Algicidal activity by cell count after 24 hr (Lugol staining)
Type in all cases: cell-based
Thalassiosira sp. = details: for Algicidal activity (degree of inhibition): 50 μl of protein (100 μg/ml), after 24 hr
Description: (§1) Organisms used as host for algicidal bacteria screen are Cochlodinium polykrikoides, Thalassiosira sp., Heterosigma akashiwo, Skeletonema costatum, Alexandrium sp., Gymnodium sp., Chaetoceros cuvisetus. Each algae cell was grown to log phase in F/2 broth (0.075 g NaNO3, 0.005 g NaH2PO4?H2O, 0.030 g Na2SiO3?9H2O, 1 ml F/2 trace metal solution, 1 ml F/2 vitamin solution and 1,000 ml aged seawater) [Stein, Handbook of phycological methods, Cambridge Univ. Press, 1973].
(§2) The cultured red tide organisms were diluted in F/2 broth to a final density of 0.05 (excitation wavelength=434 nm, emission wavelength=670 nm)on the fluorescent intensity using fluoro-spectrophotometer (Hitachi, Japan), and then 2.7 ml aliquots were dispensed into several test tubes (110 mm×10 mm) to prepare for the MPN (most probable number) method.
(§3) To measure algicidal activity of 10476—7 protein (SEQ ID NO:27), 50 μl of said protein (100 μg/ml) was added to the culture solutions of Cochlodinium polykrikoides, Thalassiosira sp., Heterosigma akashiwo, Skeletonema costatum, Alexandrium sp., Chaetoceros cuvisetus and Gymnodniium sp. which were prepared in Example 2. After 24 hr, said culture solutions were stained with 1% Lugol's iodine solution, and then the cell number was counted. Experimental groups with protease (experimental group 1 and 2) were compared with control group without protease in cell number and the degree of inhibition.
(§4) To check algicidal activity of proteins isolated Flavobacterium johnsoniae UW101 (ZP—01247095, SEQ ID NO: 4), Croceibacter atlanticus HTCC2559 (ZP—00951344, SEQ ID NO: 5), Leeuwenhoekiella blandensis MED217 (ZP—01059780, SEQ ID NO: 6) and Kordia algicida KAOT1—11562 (SEQ ID NO: 7), 50 μl of said protein (100 μg/ml) was added to the culture solutions of Cochlodinium polykrikoides, Thalassiosira sp., Heterosigma akashiwo, Skeletonema costatum, Alexandrium sp., Chaetoceros cuvisetus, and Gymnodium sp., which were prepared in Example 2. After 24 hr, said culture solutions were stained with 1% Lugol's iodine solution, and then the cell number was counted.
(§5) Experimental groups with protease (experimental group 1 and 2) were compared with control group without protease in cell number and the degree of inhibition.

Gymnodinium sp. = details: for Algicidal activity (degree of inhibition): 50 μl of protein (100 μg/ml), after 24 hr
Description: as §1, §2, §3, §4, §5

[1] = test system: Cochlodinium polykrikoides; details: Cochlodinium polykrikoides; for Algicidal activity (degree of inhibition): 50 μl of protein (100 μg/ml), after 24 hr
Description: as §1, §2, §3, §4, §5

Chaetoceros cuvisetus = details: for Algicidal activity (degree of inhibition): 50 μl of protein (100 μg/ml), after 24 hr
Description: as §1, §2, §3, §4, §5

Skeletonema costatum = details: for Algicidal activity (degree of inhibition): 50 μl of protein (100 μg/ml), after 24 hr
Description: as §1, §2, §3, §4, §5

Alexandrium sp. = details: for Algicidal activity (degree of inhibition): 50 μl of protein (100 μg/ml), after 24 hr
Description: as §1, §2, §3, §4, §5

Heterosigma akashiwo = details: for Algicidal activity (degree of inhibition): 50 μl of protein (100 μg/ml), after 24 hr
Description: as §1, §2, §3, §4, §5

Molecule | Algicidal activity (degree of inhibition) (Thalassiosira sp.) | Algicidal activity (degree of inhibition) (Gymnodinium sp.) | Algicidal activity (degree of inhibition) [1] | Algicidal activity (degree of inhibition) (Chaetoceros cuvisetus) | Algicidal activity (degree of inhibition) (Skeletonema costatum) | Algicidal activity (degree of inhibition) (Alexandrium sp.) | Algicidal activity (degree of inhibition) (Heterosigma akashiwo) | Algicidal activity (in words) (Thalassiosira sp.) | Algicidal activity (in words) (Gymnodinium sp.) | Algicidal activity (in words) [1] | Algicidal activity (in words) (Chaetoceros cuvisetus) | Algicidal activity (in words) (Skeletonema costatum) | Algicidal activity (in words) (Alexandrium sp.) | Algicidal activity (in words) (Heterosigma akashiwo)
B1 | ++++ (++++ means >75% the degree of inhibition) | ++++ (++++ means >75% the degree of inhibition) | ++++ (++++ means >75% the degree of inhibition) | ++++ (++++ means >75% the degree of inhibition) | ++ (++ means 25-50%) | ++++ (++++ means >75% the degree of inhibition) | ++++ (++++ means >75% the degree of inhibition) | – | – | – | – | – | – | –
B2 | ++++ (++++ means >75% the degree of inhibition) | ++++ (++++ means >75% the degree of inhibition) | ++++ (++++ means >75% the degree of inhibition) | ++++ (++++ means >75% the degree of inhibition) | + (+ means <25%) | ++++ (++++ means >75% the degree of inhibition) | ++++ (++++ means >75% the degree of inhibition) | showed algicidal activity | showed algicidal activity | cell growth was inhibited effectively | showed algicidal activity | showed algicidal activity | showed algicidal activity | showed algicidal activity
B3 | ++++ (++++ means >75% the degree of inhibition) | ++++ (++++ means >75% the degree of inhibition) | ++++ (++++ means >75% the degree of inhibition) | ++++ (++++ means >75% the degree of inhibition) | – | ++++ (++++ means >75% the degree of inhibition) | ++++ (++++ means >75% the degree of inhibition) | – | – | – | – | – | – | –
B4 | ++++ (++++ means >75% the degree of inhibition) | ++++ (++++ means >75% the degree of inhibition) | ++++ (++++ means >75% the degree of inhibition) | ++++ (++++ means >75% the degree of inhibition) | + (+ means <25%) | ++++ (++++ means >75% the degree of inhibition) | ++++ (++++ means >75% the degree of inhibition) | – | – | – | – | – | – | –
B5 | ++++ (++++ means >75% the degree of inhibition) | ++++ (++++ means >75% the degree of inhibition) | ++++ (++++ means >75% the degree of inhibition) | ++++ (++++ means >75% the degree of inhibition) | ++++ (++++ means >75% the degree of inhibition) | ++++ (++++ means >75% the degree of inhibition) | ++++ (++++ means >75% the degree of inhibition) | – | – | – | – | – | – | –
